Source: the supplement of paper PMC7877785
± gives the uncertainty stated by the source.

Assay: self-splicing fitness, log relative to wild type (ln ratio); higher = more splicing; Tetrahymena group I intron in knt gene, E. coli kanamycin selection, DiMSum; sequences stand for … in CUCUCU…GGAGGGAAAAGUUAUCAGGCAUGCACCUGGUAGCUAGUCUUUAAACCAAUAGAUUGCAUCGGUUUAAAAGGCAAGACCGUCAAAUUGCGGGAAAGGGGUCAACAGCCGUUCAGUACCAAGUCUCAGGGGAAACUUUGAGAUGGCCUUGCAAAGGGUAUGGUAAUAAGCUGACGGACAUGGUCCUAACCACGCAGCCAAGUCCUAAGUCAACAGAUCUUCUGUUGAUAUGGAUGCAGUUCACAGACUAAAUGUCGGUCGGGGAAGAUGUAUUCUUCUCAUAAGAUAUAGUCGGACCUCUCCUUAAUGGGAGCUAGCGGAUGAAGUGAUGCAACACUGGAGCCGCUGGGAACUAAUUUGUAUGCGAAAGUAUAUUGAUUAGUUUUGGAGUACUCGUGGUCG
In short: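 Pooled colonies went to amplicon sequencing on an Illumina HiSeq 2500 after six replicate transformations. The plates were LB agar with 100 μg/mL carbenicillin, 50 μM IPTG and 0.2% rhamnose, with or without 25 μg/mL kanamycin, incubated overnight at 37°C or 30°C. The E. coli BL21(DE3) library had all eight P1ex-region intron nucleotides randomised, the intron placed in the knt kanamycin-resistance gene on pET-22b(+). DiMSum fitness is the error-weighted combination of replicate fold changes, kanamycin against none, normalised to wild type.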

| Sequence | self-splicing fitness (ln) (30 °C) | self-splicing fitness (ln) (37 °C) |
| --- | --- | --- |
| GAGUAGCAAUAUUACGCAGA | -3 ± 0.26 | -2.41 ± 0.31 |
| CAGCAGCAAUAUUACGAGGG | -3.15 ± 0.097 | -1.12 ± 0.093 |
| GAACAGCAAUAUUACGUUCA | -2.31 ± 0.1 | -1.49 ± 0.087 |
| UCACAGCAAUAUUACGGAUC | -4.77 ± 0.46 | -3.11 ± 0.33 |
| GUUCAGCAAUAUUACGUCUG | -2.67 ± 0.085 | -1.54 ± 0.072 |
| AGUUAGCAAUAUUACGUAGA | -3.12 ± 0.14 | -1.59 ± 0.14 |
| GAAAAGCAAUAUUACGGGCU | -1.37 ± 0.15 | -1.72 ± 0.21 |
| UAGCAGCAAUAUUACGUCCU | -1.1 ± 0.068 | -0.435 ± 0.087 |
| ACCGAGCAAUAUUACGACCA |  | -0.694 ± 0.33 |
| AGCCAGCAAUAUUACGAUCA |  | -2.69 ± 0.32 |
| UUAGAGCAAUAUUACGCGAC | -3.78 ± 0.37 |  |
| CUUAAGCAAUAUUACGACUA | -1.35 ± 0.35 |  |
| AAGUAGCAAUAUUACGUUUC | -3.93 ± 0.33 | -2.03 ± 0.21 |
| GCGUAGCAAUAUUACGAAGA | -1.89 ± 0.21 | -1.51 ± 0.24 |
| CGAUAGCAAUAUUACGUGUU | -4.25 ± 0.14 | -2.3 ± 0.1 |
| GACCAGCAAUAUUACGAUCC | -1.93 ± 0.14 | -1.27 ± 0.17 |
| CGUGAGCAAUAUUACGAGCA | -1.58 ± 0.085 | -0.55 ± 0.11 |
| GGUCAGCAAUAUUACGGGUA | -1.57 ± 0.12 | -0.686 ± 0.1 |
| GAGUAGCAAUAUUACGUCUA | -0.203 ± 0.099 | -0.00603 ± 0.14 |
| GUCGAGCAAUAUUACGGUUG | -2.68 ± 0.2 | -2.15 ± 0.26 |
| GGUAAGCAAUAUUACGCAAA | -2.37 ± 0.22 | -1.15 ± 0.17 |
| GCGAAGCAAUAUUACGUUUU | -3.16 ± 0.12 | -2.5 ± 0.17 |
| GCGUAGCAAUAUUACGUCCA | -1.49 ± 0.099 | -0.365 ± 0.1 |
| CUGCAGCAAUAUUACGACAU | -1.04 ± 0.012 | -0.363 ± 0.032 |
| GUAAAGCAAUAUUACGAGAG | -3.16 ± 0.16 | -3.37 ± 0.23 |
| UUCUAGCAAUAUUACGGUGU | -3.4 ± 0.32 | -2.91 ± 0.37 |

| Sequence | self-splicing fitness (ln) (30 °C) | self-splicing fitness (ln) (37 °C) |
| --- | --- | --- |
| CGGAAGCAAUAUUACGCGCA | -1.9 ± 0.11 | -1.08 ± 0.094 |
| UAGGAGCAAUAUUACGACUU | -0.556 ± 0.14 | 0.485 ± 0.19 |
| GGCCAGCAAUAUUACGGGAC | -2.68 ± 0.12 | -1.21 ± 0.15 |
| UAGUAGCAAUAUUACGUAGC | -3.52 ± 0.22 | -1.37 ± 0.2 |
| AGUCAGCAAUAUUACGCUGG | -3.87 ± 0.23 | -2.71 ± 0.23 |
| ACUGAGCAAUAUUACGCCGG | -2.48 ± 0.3 |  |
| GAACAGCAAUAUUACGUUCG | -2.12 ± 0.099 | -1.38 ± 0.096 |
| AUGGAGCAAUAUUACGCACA | -1.57 ± 0.16 | -0.961 ± 0.21 |
| UACAAGCAAUAUUACGUGAA | -2.42 ± 0.078 | -1.7 ± 0.1 |
| AUAAAGCAAUAUUACGGAGC | -2.79 ± 0.2 | -2.21 ± 0.22 |
| GUUUAGCAAUAUUACGGAGC |  | -2.99 ± 0.44 |
| UCCUAGCAAUAUUACGCUUG | -3.79 ± 0.21 | -2.46 ± 0.17 |
| UGUCAGCAAUAUUACGACGG | -1.06 ± 0.076 | -0.98 ± 0.092 |
| CACAAGCAAUAUUACGGGUU | -2.26 ± 0.068 | -1.52 ± 0.083 |
| UAUAAGCAAUAUUACGCUUA | -1.88 ± 0.27 | -0.653 ± 0.2 |
| GUUGAGCAAUAUUACGCUGC |  | -0.666 ± 0.3 |
| GCGCAGCAAUAUUACGGGAG | -3.14 ± 0.18 | -1.39 ± 0.13 |
| ACGAAGCAAUAUUACGACCU | 0.0549 ± 0.12 | 0.126 ± 0.13 |
| CCUAAGCAAUAUUACGAGAA | -2.67 ± 0.36 |  |
| AGUUAGCAAUAUUACGCUAA | -3.11 ± 0.43 | -2.29 ± 0.41 |
| GUGCAGCAAUAUUACGCGGC | -1.7 ± 0.14 | -2.51 ± 0.23 |
| GAAGAGCAAUAUUACGGGGU | -3.09 ± 0.34 | -1.83 ± 0.28 |
| UCCAAGCAAUAUUACGGUGU | -0.788 ± 0.047 | 0.18 ± 0.066 |
| UUAAAGCAAUAUUACGGUCC |  | -1.2 ± 0.36 |
| CGUUAGCAAUAUUACGUUAU | -2.76 ± 0.34 | -2.18 ± 0.37 |
| AGGCAGCAAUAUUACGGCCA | -1.07 ± 0.15 | -0.0424 ± 0.21 |

| Sequence | self-splicing fitness (ln) (30 °C) | self-splicing fitness (ln) (37 °C) |
| --- | --- | --- |
| CUGAAGCAAUAUUACGCGAA | -3.12 ± 0.32 | -0.319 ± 0.18 |
| CCAUAGCAAUAUUACGGAUU | -3.49 ± 0.19 | -2.96 ± 0.24 |
| UCAUAGCAAUAUUACGUUAU | -3.05 ± 0.14 | -2.21 ± 0.16 |
| CAUAAGCAAUAUUACGAGUA | -2.34 ± 0.15 | -1.45 ± 0.15 |
| UGGAAGCAAUAUUACGAUAG | -2.51 ± 0.2 | -0.419 ± 0.17 |
| GAAUAGCAAUAUUACGCAUU | -3.04 ± 0.22 | -1.43 ± 0.2 |
| CUGGAGCAAUAUUACGGACC | -3.79 ± 0.24 | -2.04 ± 0.34 |
| GCCAAGCAAUAUUACGCACG | -2.84 ± 0.23 | -1.08 ± 0.16 |
| CAGAAGCAAUAUUACGGUAC | -4.59 ± 0.28 | -1.72 ± 0.21 |
| AUUCAGCAAUAUUACGCAAC | -2.05 ± 0.18 | -0.188 ± 0.17 |
| UUACAGCAAUAUUACGGAGC | -3.42 ± 0.38 | -1.79 ± 0.35 |
| GCGCAGCAAUAUUACGUAAG | -0.982 ± 0.066 | -0.943 ± 0.1 |
| CAUAAGCAAUAUUACGCUAC |  | -1.79 ± 0.21 |
| CACUAGCAAUAUUACGACAU | -3.209 ± 0.019 | -1.97 ± 0.034 |
| GACGAGCAAUAUUACGAAAC | -4.29 ± 0.3 | -3.14 ± 0.28 |
| GGAUAGCAAUAUUACGGUCA | -0.171 ± 0.081 | -0.0595 ± 0.11 |
| GUCAAGCAAUAUUACGGCCG | -2.31 ± 0.4 |  |
| UCUAAGCAAUAUUACGUGCA | -1.2 ± 0.12 | -0.538 ± 0.13 |
| AACUAGCAAUAUUACGUAAC | 0.169 ± 0.15 | -1.5 ± 0.3 |
| GUAAAGCAAUAUUACGUACC | -3.89 ± 0.2 | -2.55 ± 0.2 |
| AGUUAGCAAUAUUACGGCUG | -0.983 ± 0.085 | -0.309 ± 0.11 |
| UGUUAGCAAUAUUACGGAAG | -3.18 ± 0.3 | -1.37 ± 0.17 |
| CUCCAGCAAUAUUACGAAUU | -3.27 ± 0.18 | -2.18 ± 0.2 |
| AGCGAGCAAUAUUACGGCAG | -1.87 ± 0.14 | -1.07 ± 0.23 |
| CCGCAGCAAUAUUACGUGUA | -3.25 ± 0.17 | -1.38 ± 0.13 |
| GCUCAGCAAUAUUACGUCUG | -2.36 ± 0.094 | -1.99 ± 0.11 |
